Entries after “also recorded” stand apart in the source; their conditions may differ. Where no end group is shown, it is not given here.
Assays:
[1] = target: T1, UFC1 (Homo sapiens, UniProt Q9Y3C8); test: In vitro thioester formation (ufmylation) assay, UFC1~UFM1 conjugate; assay type: biochemical; settings: for effect on UFC1~UFM1 conjugation (in words): 1 mM ATP, 22 °C, peptides added to UBA5 AD^1–330 where applicable; for UFC1~UFM1 conjugate fraction (in words): ATP reduced to 25 µM, compared to wild type peptide
T1 construct: Full length UFC1, residues 1–167; modified ubiquitin tag (Ub19) with TEV site (N, cleaved yes); made in house; host or cells: E. coli T7 Express
T1 sequence (Q9Y3C8 1-167): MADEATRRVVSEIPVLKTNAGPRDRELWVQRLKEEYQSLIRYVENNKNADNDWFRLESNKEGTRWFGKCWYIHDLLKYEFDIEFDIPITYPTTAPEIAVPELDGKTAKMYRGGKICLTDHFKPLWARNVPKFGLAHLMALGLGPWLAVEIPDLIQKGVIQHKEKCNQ
Description: First, we analyzed the effect of the UBA5 C-terminus on UFM1 transfer to UFC1 with an in vitro thioester formation assay (Figure 1B–E).
Ufmylation reaction assays were adopted from work of Xie. Briefly, 70 µM UFM1, 20 µM UFC1 and 20 µM of different UBA5 constructs were mixed in reaction buffer (50 mM HEPES pH = 7.5, 100 mM NaCl, 5 mM MgCl2). After starting the reaction with addition of 1 mM ATP, the reaction mix was incubated at 22 °C for the desired time. To quench the reaction and prepare electrophoretic samples, 1 µL of the reaction mix was added to 99 µL 1x non-reducing SDS loading buffer and frozen in liquid nitrogen. Sample content was visualized by sodium dodecyl sulfate polyacrylamide gel electrophoresis (SDS-PAGE). The transfer to polyvinylidene difluoride (PVDF) membrane was performed via a Trans-Blot® Turbo™ Transfer System (Bio-Rad, München, Germany). After transfer the membrane was blocked with TBST (Tris-buffered saline with Tween20 buffer, 20 mM Tris, 150 mM NaCl and 0.1% TWEEN 20) containing 5% w/v nonfat dry milk for 1 h, followed by α-UFC1 antibody incubation over night at 4 °C (ab189251 abcam, 1:10,000 in TBST containing 5% w/v nonfat dry milk). After washing with TBST the membrane was incubated with secondary antibody (anti-rabbit-HRP) for 1 h at RT and again washed with TBST. Detection was performed by addition of ECL solution. For quantification of UFC1 ufmylation coloc2 software implemented in ImageJ was used.

[2] = target: T2, GABARAPL2 (Homo sapiens, UniProt P60520); test: ITC, UBA5 peptides vs GABARAPL2; assay type: binding; settings: for affinity increase to GABARAPL2 vs wild type peptide / ΔG / ΔS / −T*ΔS / KA*10^−6: 25 °C; for ΔG / ΔS / −T*ΔS: vs GABARAPL2; for KA*10^−6: vs GABARAPL2, value is KA × 10^−6, ± = fitting error; for affinity change, GABARAPL2: A371 mutants of R1-R2-R3^325–404
T2 construct: modified ubiquitin tag (Ub19) with TEV site (N, cleaved yes); made in house; host or cells: E. coli T7 Express
T2 sequence (P60520 3-116): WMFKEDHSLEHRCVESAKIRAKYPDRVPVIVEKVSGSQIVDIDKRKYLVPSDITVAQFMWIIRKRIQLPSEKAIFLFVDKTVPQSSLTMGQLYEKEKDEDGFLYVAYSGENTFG
Description: (§1) To understand how the UBA5 C-terminus participates in the ufmylation cascade, we performed isothermal titration calorimetry (ITC) experiments, in which we titrated UBA5 C-terminal peptides (see Table 1) to the UBA5 AD, UFC1, UFM1 and representative LC3/GABARAP proteins (Figure 2A, Supplementary Figure S2A–D and Table 2).
(§2) All proteins and peptides were expressed in E.Coli T7 Express (New England Biolabs GmbH, Frankfurt, Germany) cells in LB or M9 (to obtain ^15N- and ^13C,^15N-labeled polypeptides) media according to the protocol described in [33, 36]. For protein purification, bacterial cell pellets were resuspended in lysis buffer (50 mM Tris-HCl pH = 7.5, 100 mM NaCl, 5% glycerol, 5 mM PIC (protease inhibitor cocktail)) and lysed via sonication (TT13 Sonotrode, 40% amplitude, for 6 × 1 min with a 0.5/0.5-s pulse). Lysates were centrifuged for 45 min at 17,000× g at 4 °C. Supernatants were loaded onto a His Trap Fast Flow 5 mL column (GE Healthcare, München, Germany) equilibrated in loading buffer (50 mM Tris-HCl pH = 8.0, 250 mM NaCl, 1% glycerol, 20 mM imidazole). The column was washed with loading buffer for 5–10 CV and protein was eluted with elution buffer (50 mM Tris-HCl pH = 8, 250 mM NaCl, 1% glycerol, 400 mM imidazole). Simultaneous TEV cleavage (1 mg TEV protease was added to 100 mg peptides/proteins) and buffer exchange to loading buffer via dialysis was performed over night at 4 °C. After reverse IMAC, proteins were concentrated with conical concentrators (Millipore Merck, Darmstadt, Germany) and loaded on a Superdex 10/60 75 or 200 column (GE Healthcare, München, Germany) for further purification and equilibration with ITC/NMR buffer (25 mM HEPES pH = 7.5, 100 mM NaCl). For structural NMR spectroscopy, buffer containing 50 mM Tris-HCl pH = 7.5, 100 mM NaCl was used. Prior to NMR experiments, TCEP and protease inhibitors cocktail were added to the samples to final concentrations 1 and 5 mM, respectively. Purified peptides and protein were concentrated and stored at −80 °C. The protein and peptide concentrations were calculated from the UV absorption at 280 nm by Nanodrop spectrophotometer (Thermo Scientific, Langenselbold, Germany).
(§3) All ITC experiments were performed at 25 °C using a VP-ITC microcalorimeter (Malvern Panalytical Ltd., Malvern, UK). Peptides in concentration of ~400 µM were titrated into 20–25 µM solutions of corresponding binding partner at a stirring speed of 307 rpm. The raw data were corrected on the dilution heat of peptides obtained in independent experiment (titration of the peptide in syringe into the ITC/NMR buffer in the measuring cell). Pre-titration delay was set to 180 s, interval between titration steps was experimentally adjusted to avoid kinetic contribution to the observed heat effects and set to 200 s. A single ITC profile was collected for each type of interaction. The ITC data were analyzed based on a “one-site” binding model with MicroCal ITC software implemented in Origin 7.0.

[3] = target: T3, LC3B (Homo sapiens, UniProt Q9GZQ8); test: ITC, UBA5 peptides vs LC3B; assay type: binding; settings: for affinity increase to LC3B vs wild type peptide / ΔG / ΔS / −T*ΔS / KA*10^−6: 25 °C; for ΔG / ΔS / −T*ΔS / KA*10^−6: vs LC3B; for KA*10^−6: value is KA × 10^−6, ± = fitting error; for affinity change, LC3B: A371 mutants of R1-R2-R3^325–404
T3 construct: LC3B, residues 5–120; ubiquitin tag Ub3 (vector pETm60_Ub3) (cleaved yes); made in house; host or cells: E. coli T7 Express
Description: as §1, §2, §3

[4] = target: T4, UFM1 (Homo sapiens, UniProt P61960); test: ITC, UBA5 peptides vs UFM1; assay type: binding; settings: 25 °C; for ΔG / −T*ΔS: vs UFM1; for ΔS: vs UFM1, one-site model, single profile; for KA*10^−6: vs UFM1, value is KA × 10^−6, ± = fitting error
T4 construct: Full length UFM1, residues 2–83; modified ubiquitin tag (Ub19) with TEV site (N, cleaved yes); made in house; host or cells: E. coli T7 Express
T4 sequence (P61960 2-83): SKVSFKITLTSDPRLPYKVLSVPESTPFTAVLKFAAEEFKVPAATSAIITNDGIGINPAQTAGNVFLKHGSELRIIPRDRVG
Description: as §1, §2, §3

[5] = target: T1, UFC1; test: ITC, UBA5 constructs vs UFC1; assay type: binding; settings: for N: ITC stoichiometry; for N / ΔG / −T*ΔS / ΔS / KA*10^−6: peptide vs UFC1; for N / KA*10^−6 / ΔH: ± = fitting error; for ΔG / −T*ΔS / ΔS / KA*10^−6 / Kd / ΔH: ITC, 25 °C; for ΔS / Kd / ΔH: one-site model; for ΔS: single profile; for KA*10^−6: value is KA × 10^−6; for Kd / ΔH: VP-ITC, peptide ~400 µM titrated into 20–25 µM UFC1, 25 mM HEPES pH 7.5, 100 mM NaCl, single ITC profile
Description: as §1
To investigate if conjugation of UFM1 to the UBA5 catalytic cysteine (C250) affects the UFC1:UBA5 interactions, we prepared full length UBA5 C250K mutant and stably conjugated UFM1 to it as reported before for a number of ubiquitin-specific E2 enzymes. We compared the UFC1 spectra after addition of a twofold molar excess of FL^1–404 and FL^1–404 C250K~UFM1 constructs (Supplementary Figure S5C).
as §2, §3

Substance: GABARAPL2: GABARAPL2, residues 3–116
- effect of GABARAPL2 on UFC1~UFM1 conjugation ([1]; high concentration of GABARAPL2 added to ufmylation assay): could efficiently prohibit the UFC1~UFM1 conjugation

Substance: R1-R2-R3^325–404 A371T: UBA5 C-terminal part with A371T mutant (res. 325–404)
- affinity increase to GABARAPL2 vs wild type peptide [2]: ~ 3 fold
- ΔG [2]: -9.89 kcal/mol
- ΔS [2]: 7.76 cal mol^−1 K^−1
- −T*ΔS [2]: -2.31 kcal/mol
- KA*10^−6 [2]: 17.90 ± 3.75 M^−1
- affinity change, GABARAPL2 [2]: some increase in affinity
- effect on UFC1~UFM1 conjugation (in words) [1]: nearly the same trans-thioesterification efficiency compared to wild type
- effect on UFC1~UFM1 conjugation (in words) ([1]; listed as A371T): did not affect significantly the formation of the UFC1~UFM1 conjugate
- UFC1~UFM1 conjugate fraction (in words) [1]: reduction of the UFC1~UFM1 conjugate fraction
- affinity increase to LC3B vs wild type peptide [3]: ~ 3 fold
- ΔG [3]: -8.02 kcal/mol
- ΔS [3]: 14.3 cal mol^−1 K^−1
- −T*ΔS [3]: -4.26 kcal/mol
- KA*10^−6 [3]: 0.76 ± 0.04 M^−1
- affinity change, LC3B [3]: some increase in affinity
- ΔG [4]: -7.02 kcal/mol
- −T*ΔS [4]: 3.96 kcal/mol
- ΔS [4]: −13.3 cal mol^−1 K^−1
- KA*10^−6 [4]: 0.14 ± 0.01 M^−1
- N [5]: 1.03 ± 0.008
- ΔG [5]: -7.82 kcal/mol
- −T*ΔS [5]: 0.06 kcal/mol
- ΔS [5]: −0.19 cal mol^−1 K^−1
- KA*10^−6 [5]: 0.54 ± 0.03 M^−1
- Kd [5]: 1800 nM
- ΔH [5]: -7.88 ± 0.08 kcal/mol

Substance: GAMEDSGESLEDLMAKMKNM [R3^388–404]
- Kd [5]: 10000 nM

Substance: GAMGPVPDLPEGITVAYTIPKKQEDSVTELTVEDSGESLEDLMAKMKNM [R2-R3^359–404]
- Kd [5]: 2700 nM

Substance: H-GAMGPVPDLPEGITVAYTIPK-OH [R2^359–376]
- effect on UFC1~UFM1 conjugation (in words) [1]: virtually no effect
- interaction / affinity to UFC1 (in words) ([5]; ITC and NMR titration, listed as R2): no direct interactions; also recorded: does not interact with UFC1

Substance: R1-R2-R3^325–404 A371E: UBA5 C-terminal part with A371E mutant (res. 325–404)
- affinity increase to GABARAPL2 vs wild type peptide [2]: ~ 3 fold
- ΔG [2]: -9.95 kcal/mol
- ΔS [2]: 7.23 cal mol^−1 K^−1
- −T*ΔS [2]: -2.16 kcal/mol
- KA*10^−6 [2]: 19.60 ± 2.57 M^−1
- affinity change, GABARAPL2 [2]: some increase in affinity
- effect on UFC1~UFM1 conjugation (in words) [1]: nearly the same trans-thioesterification efficiency compared to wild type
- effect on UFC1~UFM1 conjugation (in words) ([1]; listed as A371E): did not affect significantly the formation of the UFC1~UFM1 conjugate
- UFC1~UFM1 conjugate fraction (in words) [1]: reduction of the UFC1~UFM1 conjugate fraction
- affinity increase to LC3B vs wild type peptide [3]: ~ 7 fold
- ΔG [3]: -8.49 kcal/mol
- ΔS [3]: 15.3 cal mol^−1 K^−1
- −T*ΔS [3]: -4.56 kcal/mol
- KA*10^−6 [3]: 1.66 ± 0.12 M^−1
- affinity change, LC3B [3]: some increase in affinity
- ΔG [4]: -6.86 kcal/mol
- −T*ΔS [4]: 4.56 kcal/mol
- ΔS [4]: −15.3 cal mol^−1 K^−1
- KA*10^−6 [4]: 0.11 ± 0.01 M^−1
- N [5]: 1.03 ± 0.005
- ΔG [5]: -7.88 kcal/mol
- −T*ΔS [5]: -0.11 kcal/mol
- ΔS [5]: 0.36 cal mol^−1 K^−1
- KA*10^−6 [5]: 0.60 ± 0.02 M^−1
- Kd [5]: 1600 nM
- ΔH [5]: -7.78 ± 0.05 kcal/mol
